target: HLA-A*02:01 (Homo sapiens, UniProt P04439, D140Y/D185E/D98H/E176V/E277Q/G131W/G231S/I119V/I121R/I166T/I218V/L300P/L318F/N151K/N90K/P208A/P217A/Q86G/Q94H/R138H/R169H/T345S); experiment: MHC binding assay (UV-ligand exchange, β2m ELISA, peptide exchange yield); conditions: binding to HLA-A*02:01 ranged by peptide exchange yield (UV-ligand exchange, β2m ELISA)
Source text: Candidate peptides for T cell based therapies according to the present invention were further tested for their MHC binding capacity (affinity). The individual peptide-MHC complexes were produced by UV-ligand exchange, where a UV-sensitive peptide is cleaved upon UV-irradiation, and exchanged with the peptide of interest as analyzed. Only peptide candidates that can effectively bind and stabilize the peptide-receptive MHC molecules prevent dissociation of the MHC complexes. To determine the yield of the exchange reaction, an ELISA was performed based on the detection of the light chain (β2 m) of stabilized MHC complexes. The assay was performed as generally described in Rodenko et al. (Rodenko et al., 2006).
96 well MAXISorp plates (NUNC) were coated over night with 2 μg/ml streptavidin in PBS at room temperature, washed 4× and blocked forth at 37° C. in 2% BSA containing blocking buffer. Refolded HLA-A*02:01/MLA-001 monomers served as standards, covering the range of 15-500 ng/ml. Peptide-MHC monomers of the UV-exchange reaction were diluted 100 fold in blocking buffer. Samples were incubated for 1 h at 37° C., washed four times, incubated with 2 ug/ml HRP conjugated anti-β2 m for 1 h at 37° C., washed again and detected with TMB solution that is stopped with […]. Absorption was measured at 450 nm. Candidate peptides that show a high exchange yield (preferably higher than 50%, most preferred higher than 75%) are generally preferred for a generation and production of antibodies or fragments thereof, and/or T cell receptors or fragments thereof, as they show sufficient avidity to the MHC molecules and prevent dissociation of the MHC complexes.

Row | Substance | Peptide exchange
1 | 100 (SLQSFIHGV; listed as Homo sapiens) [compound 100] | +++ (>50 = +++)
2 | 120 (IIIPEIQKV; listed as Homo sapiens) [compound 120] | +++ (>50 = +++)
3 | 79 (FLDPATPRV; listed as Homo sapiens) [compound 79] | +++ (>50 = +++)
4 | 119 (SLDEKQNLV; listed as Homo sapiens) [compound 119] | +++ (>50 = +++)
5 | 142 (FLGENISNFL; listed as Homo sapiens) [compound 142] | +++ (>50 = +++)
6 | 85 (HLLDSKVPSV; listed as Homo sapiens) [compound 85] | +++ (>50 = +++)
7 | 36 (ALWDEFNQL; listed as Homo sapiens) [compound 36] | +++ (>50 = +++)
8 | 11 (AMAELRVVV; listed as Homo sapiens) [compound 11] | ++++ (>75% = ++++)
9 | 132 (YILEGEPGKV; listed as Homo sapiens) [compound 132] | ++++ (>75% = ++++)
10 | 47 (VLMDDTDPL; listed as Homo sapiens) [compound 47] | +++ (>50 = +++)
11 | 137 (ALFPHLLQPVL; listed as Homo sapiens) [compound 137] | ++++ (>75% = ++++)
12 | 102 (GLYEGLDWL; listed as Homo sapiens) [compound 102] | +++ (>50 = +++)
13 | 32 (YQAPDIDVQL; listed as Homo sapiens) [compound 32] | +++ (>50 = +++)
14 | 87 (RLLELLQEA; listed as Homo sapiens) [compound 87] | ++++ (>75% = ++++)
15 | 82 (NLHNSYYSV; listed as Homo sapiens) [compound 82] | +++ (>50 = +++)
16 | 70 (KLAEISLGV; listed as Homo sapiens) [compound 70] | ++ (>20% = ++)
17 | 88 (ALASLENHV; listed as Homo sapiens) [compound 88] | +++ (>50 = +++)
18 | 43 (FLIESKLLSL; listed as Homo sapiens) [compound 43] | ++++ (>75% = ++++)
19 | 40 (VIADRVVTV; listed as Homo sapiens) [compound 40] | +++ (>50 = +++)
20 | 118 (RLLDFPTLLV; listed as Homo sapiens) [compound 118] | +++ (>50 = +++)
21 | 58 (GLDSSVNVQGSVL; listed as Homo sapiens) [compound 58] | +++ (>50 = +++)
22 | 121 (QLQGYLRSV; listed as Homo sapiens) [compound 121] | +++ (>50 = +++)
23 | 72 (SLFTGLRSI; listed as Homo sapiens) [compound 72] | +++ (>50 = +++)
24 | 80 (ILLDTPLFLL; listed as Homo sapiens) [compound 80] | +++ (>50 = +++)
25 | 78 (FIPDFAVAI; listed as Homo sapiens) [compound 78] | ++++ (>75% = ++++)

Row | Substance | Peptide exchange
26 | 13 (FLEEKEQAAL; listed as Homo sapiens) [compound 13] | +++ (>50 = +++)
27 | 113 (FVFEPPPGV; listed as Homo sapiens) [compound 113] | ++++ (>75% = ++++)
28 | 147 (QMLELITRL; listed as Homo sapiens) [compound 147] | +++ (>50 = +++)
29 | 115 (SLLDFERSL; listed as Homo sapiens) [compound 115] | +++ (>50 = +++)
30 | 89 (YLFPETEFI; listed as Homo sapiens) [compound 89] | +++ (>50 = +++)
31 | 81 (SLDKGTLYI; listed as Homo sapiens) [compound 81] | +++ (>50 = +++)
32 | 2 (GLLKAYSIRTA; listed as Homo sapiens) [compound 2] | +++ (>50 = +++)
33 | 134 (IVAPGTFEV; listed as Homo sapiens) [compound 134] | +++ (>50 = +++)
34 | 83 (VILDKYYFL; listed as Homo sapiens) [compound 83] | ++++ (>75% = ++++)
35 | 25 (SLDSSGFSL; listed as Homo sapiens) [compound 25] | +++ (>50 = +++)
36 | 66 (SLWEENQAL; listed as Homo sapiens) [compound 66] | +++ (>50 = +++)
37 | 19 (SLATTLTKI; listed as Homo sapiens) [compound 19] | +++ (>50 = +++)
38 | 95 (YLIGQHVTA; listed as Homo sapiens) [compound 95] | ++++ (>75% = ++++)
39 | 96 (KLTNGIWVL; listed as Homo sapiens) [compound 96] | +++ (>50 = +++)
40 | 74 (LLQEGEVYSA; listed as Homo sapiens) [compound 74] | +++ (>50 = +++)
41 | 1 (ILLQASVQV; listed as Homo sapiens) [compound 1] | ++++ (>75% = ++++)
42 | 106 (ILLDTPLFL; listed as Homo sapiens) [compound 106] | +++ (>50 = +++)
43 | 21 (TLIEDDALNGA; listed as Homo sapiens) [compound 21] | +++ (>50 = +++)
44 | 54 (ALNDEINFL; listed as Homo sapiens) [compound 54] | +++ (>50 = +++)
45 | 8 (ALSFSSSAGPGLLKA; listed as Homo sapiens) [compound 8] | +++ (>50 = +++)
46 | 39 (AMASHLTST; listed as Homo sapiens) [compound 39] | +++ (>50 = +++)
47 | 12 (GVALTVTGV; listed as Homo sapiens) [compound 12] | ++++ (>75% = ++++)
48 | 64 (GLLSQGSPL; listed as Homo sapiens) [compound 64] | +++ (>50 = +++)
49 | 42 (FLIDASQRV; listed as Homo sapiens) [compound 42] | +++ (>50 = +++)
50 | 116 (QLAWFDTDL; listed as Homo sapiens) [compound 116] | +++ (>50 = +++)

Row | Substance | Peptide exchange
51 | 56 (ILLRDLPTL; listed as Homo sapiens) [compound 56] | +++ (>50 = +++)
52 | 86 (FLISLIISV; listed as Homo sapiens) [compound 86] | +++ (>50 = +++)
53 | 44 (GLAQDPKSLQL; listed as Homo sapiens) [compound 44] | +++ (>50 = +++)
54 | 108 (YLDPNQRDL; listed as Homo sapiens) [compound 108] | +++ (>50 = +++)
55 | 91 (NLDAATYQV; listed as Homo sapiens) [compound 91] | +++ (>50 = +++)
56 | 94 (ALADGVPVAL; listed as Homo sapiens) [compound 94] | +++ (>50 = +++)
57 | 144 (YLAGEAPTL; listed as Homo sapiens) [compound 144] | +++ (>50 = +++)
58 | 109 (RLIDDMVAQA; listed as Homo sapiens) [compound 109] | +++ (>50 = +++)
59 | 145 (ALYPGQLVQL; listed as Homo sapiens) [compound 145] | +++ (>50 = +++)
60 | 37 (ILSAILVHL; listed as Homo sapiens) [compound 37] | +++ (>50 = +++)
61 | 34 (ALLDEQQVNV; listed as Homo sapiens) [compound 34] | +++ (>50 = +++)
62 | 117 (YMLDIFHEVL; listed as Homo sapiens) [compound 117] | +++ (>50 = +++)
63 | 52 (SLATLEGIQL; listed as Homo sapiens) [compound 52] | +++ (>50 = +++)
64 | 33 (VLFGEITRL; listed as Homo sapiens) [compound 33] | +++ (>50 = +++)
65 | 92 (ALLDEQQVNVLL; listed as Homo sapiens) [compound 92] | +++ (>50 = +++)
66 | 135 (FLLPLIIVL; listed as Homo sapiens) [compound 135] | +++ (>50 = +++)
67 | 138 (YLTNEGIQYL; listed as Homo sapiens) [compound 138] | +++ (>50 = +++)
68 | 76 (AVVSSVNTV; listed as Homo sapiens) [compound 76] | +++ (>50 = +++)
69 | 93 (LLDLIQTKV; listed as Homo sapiens) [compound 93] | +++ (>50 = +++)
70 | 20 (YLPDSLTQL; listed as Homo sapiens) [compound 20] | ++++ (>75% = ++++)
71 | 67 (FLTPPLLSV; listed as Homo sapiens) [compound 67] | ++++ (>75% = ++++)
72 | 84 (ALDPASISV; listed as Homo sapiens) [compound 84] | +++ (>50 = +++)
73 | 107 (LTLAKLEKV; listed as Homo sapiens) [compound 107] | ++ (>20% = ++)

— US12084522B2, “Peptides, combination of peptides, and cell based medicaments for use in immunotherapy against urinary bladder cancer and other cancers” (Immatics Biotechnologies GmbH, priority 2016, dated 2024)
